Source: patent WO2018095932A1 (dated 2018)
Substitutions are numbered along the chain they refer to.

Columns and labels:
[1] = molecular target: T1, human FGFR1b-IIIb extracellular domain with a His tag (human); assay: ELISA, IgG1 format
T1 construct: also called huFGFR1b-IIIb; FGFR1-IIIb
T1 chain: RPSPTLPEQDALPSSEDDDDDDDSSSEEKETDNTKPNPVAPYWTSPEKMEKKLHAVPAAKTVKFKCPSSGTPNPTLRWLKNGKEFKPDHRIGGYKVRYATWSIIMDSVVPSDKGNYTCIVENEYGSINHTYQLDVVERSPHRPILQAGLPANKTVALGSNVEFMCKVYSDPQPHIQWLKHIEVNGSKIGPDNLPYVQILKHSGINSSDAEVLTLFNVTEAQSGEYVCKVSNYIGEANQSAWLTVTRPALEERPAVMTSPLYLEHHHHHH

[2] = molecular target: T2, human FGFR1b-IIIc extracellular domain with a His tag (human, UniProt P11362 22-376); assay: ELISA, IgG1 format
T2 construct: also called huFGFR1b-IIIc; FGFR1-IIIc
T2 sequence: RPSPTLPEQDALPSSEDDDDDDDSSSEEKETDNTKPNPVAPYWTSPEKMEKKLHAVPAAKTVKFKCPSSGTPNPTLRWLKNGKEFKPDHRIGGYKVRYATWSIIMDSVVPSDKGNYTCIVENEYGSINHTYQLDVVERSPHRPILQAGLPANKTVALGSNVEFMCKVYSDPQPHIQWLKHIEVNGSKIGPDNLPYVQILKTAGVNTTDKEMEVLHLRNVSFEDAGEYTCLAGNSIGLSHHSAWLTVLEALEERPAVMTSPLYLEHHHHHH

FGFR1 of NCI-H520 cells = FGFR1 of NCI-H520 cells (UniProt P11362 22-822); assay: cell-based or functional assay
[3] = molecular target: T1, human FGFR1b-IIIb extracellular domain …; assay: SPR (BIAcore 4000), antibody captured by anti-human Fc, His-tagged FGFR1 injected
[4] = molecular target: T2, human FGFR1b-IIIc extracellular domain …; assay: as above
[5] = molecular target: T1, human FGFR1b-IIIb extracellular domain …; assay: ELISA
Human FGFR1 D2-His6 = molecular target: T3, Human FGFR1 D2-His6 (human, UniProt P11362 22-254); assay: ELISA
T3 construct: also called D2 domain; wild-type D2
T3 sequence: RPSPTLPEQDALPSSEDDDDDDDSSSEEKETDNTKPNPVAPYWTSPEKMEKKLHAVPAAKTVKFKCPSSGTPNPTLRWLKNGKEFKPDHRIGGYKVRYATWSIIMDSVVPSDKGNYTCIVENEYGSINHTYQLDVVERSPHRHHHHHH

[6] = molecular target: T4, human FGFR1 (FGFR1b-IIIb or FGFR1b-IIIc, not stated which) (human, UniProt P11362 22-376); assay: ELISA on coated human FGFR1b (IIIb or IIIc, not stated which)
T4 chain: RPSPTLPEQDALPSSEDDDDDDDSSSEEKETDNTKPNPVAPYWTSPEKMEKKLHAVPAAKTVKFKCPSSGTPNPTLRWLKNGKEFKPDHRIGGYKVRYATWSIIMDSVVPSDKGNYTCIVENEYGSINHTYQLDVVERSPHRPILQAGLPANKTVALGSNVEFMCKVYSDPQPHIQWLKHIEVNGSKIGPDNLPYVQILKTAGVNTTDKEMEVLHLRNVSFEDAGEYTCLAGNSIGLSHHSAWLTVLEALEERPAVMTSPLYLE

[7] = molecular target: T4, human FGFR1 (FGFR1b-IIIb or …); assay: ELISA on coated human FGFR1b (IIIb or IIIc, not stated which), IgG1 format

FGFR1 of NCI-H520 cells, sequence (P11362 22-822): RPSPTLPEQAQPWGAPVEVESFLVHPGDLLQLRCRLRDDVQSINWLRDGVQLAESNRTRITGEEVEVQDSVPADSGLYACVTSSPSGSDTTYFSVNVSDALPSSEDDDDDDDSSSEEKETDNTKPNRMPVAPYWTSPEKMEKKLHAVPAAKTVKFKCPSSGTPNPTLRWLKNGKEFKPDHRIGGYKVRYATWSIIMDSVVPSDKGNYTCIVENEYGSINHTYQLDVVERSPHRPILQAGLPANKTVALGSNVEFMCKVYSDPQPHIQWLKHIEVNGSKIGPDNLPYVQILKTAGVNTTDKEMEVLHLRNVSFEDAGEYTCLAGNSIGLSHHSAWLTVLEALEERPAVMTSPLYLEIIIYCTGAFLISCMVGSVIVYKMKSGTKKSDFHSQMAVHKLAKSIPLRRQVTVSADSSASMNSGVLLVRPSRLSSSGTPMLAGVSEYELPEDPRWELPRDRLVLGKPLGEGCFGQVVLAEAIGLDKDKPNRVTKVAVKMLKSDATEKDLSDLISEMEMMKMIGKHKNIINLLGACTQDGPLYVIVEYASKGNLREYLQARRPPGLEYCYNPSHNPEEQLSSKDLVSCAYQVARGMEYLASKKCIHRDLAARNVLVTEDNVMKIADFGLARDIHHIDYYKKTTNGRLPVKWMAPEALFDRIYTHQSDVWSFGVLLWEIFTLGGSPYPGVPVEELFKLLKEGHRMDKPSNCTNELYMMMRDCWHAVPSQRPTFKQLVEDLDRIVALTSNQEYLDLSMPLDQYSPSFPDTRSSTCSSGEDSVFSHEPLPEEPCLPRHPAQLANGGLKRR

B1: mAb #A02 in the IgG1 format (antibody, V domains shown)
VH: QVQLQESGPGLVKPSGTLSLTCAVSGGSISSNNWWSWVRQPPGKGLEWIGEIYHSGSTSYNPSLKSRVTISVDKSKNQFSLKLSSVTAADTAVYYCARATDWFDLWGQGTLVTVSS
VL: SYVLTQPPSVSVAPGQTARITCGGNNIGSESVHWYQQKPGQAPVLVVYDDSDRPSGIPERFSGSNSGNTATLTISRVEAGDEADYYCQVWDSTSDHRVFGGGTKLTVL
binding result [1]: binds
binding result [2]: binds

B2: mAb #A08 (#A08 hit), anti-FGFR1 antibody (antibody, V domains shown)
VH: B1 VH with Q1E, S84N, A99G, L105P
VL: B1 VL with S1Q, Y2A
notes: also called imAb #A08; clone #A08
IC50 of inhibition of FGF1-induced pFGFR1 in NCI-H520 cells (FGFR1 of NCI-H520 cells): 4 nM
IC50 of inhibition of FGF2-induced pFGFR1 in NCI-H520 cells (FGFR1 of NCI-H520 cells): 0.2 nM
Kd [3]: 0.01 nM
Kd [4]: 0.017 nM

B3: mAb #C01 in the IgG1 format (antibody, V domains shown)
VH: B1 VH with L105A
VL: B1 VL
binding result [1]: binds
binding result [2]: binds

B4: monovalent SEEDbody #A08 (antibody)
heavy: EVQLQESGPGLVKPSGTLSLTCAVSGGSISSNNWWSWVRQPPGKGLEWIGEIYHSGSTSYNPSLKSRVTISVDKSKNQFSLKLSSVTAADTAVYYCARGTDWFDPWGQGTLVTVSSASTKGPSVFPLAPSSKSTSGGTAALGCLVKDYFPEPVTVSWNSGALTSGVHTFPAVLQSSGLYSLSSVVTVPSSSLGTQTYICNVNHKPSNTKVDKRVEPKSCDKTHTCPPCPAPELLGGPSVFLFPPKPKDTLMISRTPEVTCVVVDVSHEDPEVKFNWYVDGVEVHNAKTKPREEQYNSTYRVVSVLTVLHQDWLNGKEYKCKVSNKALPAPIEKTISKAKGQPFRPEVHLLPPSREEMTKNQVSLTCLARGFYPKDIAVEWESNGQPENNYKTTPSRQEPSQGTTTFAVTSKLTVDKSRWQQGNVFSCSVMHEALHNHYTQKTISLSPG
chain: EPKSSDKTHTCPPCPAPELLGGPSVFLFPPKPKDTLMISRTPEVTCVVVDVSHEDPEVKFNWYVDGVEVHNAKTKPREEQYNSTYRVVSVLTVLHQDWLNGKEYKCKVSNKALPAPIEKTISKAKGQPREPQVYTLPPPSEELALNELVTLTCLVKGFYPSDIAVEWLQGSQELPREKYLTWAPVLDSDGSFFLYSILRVAAEDWKKGDTFSCSVMHEALHNHYTQKSLDRSPG
light: SYVLTQPPSVSVAPGQTARITCGGNNIGSESVHWYQQKPGQAPVLVVYDDSDRPSGIPERFSGSNSGNTATLTISRVEAGDEADYYCQVWDSTSDHRVFGGGTKLTVLGQPKAAPSVTLFPPSSEELQANKATLVCLISDFYPGAVTVAWKADSSPVKAGVETTTPSKQSNNKYAASSYLSLTPEQWKSHKSYSCQVTHEGSTVEKTVAPTECS
IC50 of inhibition of FGF1-induced pFGFR1 in NCI-H520 cells (FGFR1 of NCI-H520 cells): 70 nM
IC50 of inhibition of FGF2-induced pFGFR1 in NCI-H520 cells (FGFR1 of NCI-H520 cells): 6 nM
IC50 of inhibition of pFGFR1 in NCI-H520 cells in the absence of ligand (FGFR1 of NCI-H520 cells): 20 nM
fold change of pFGFR1 inhibition IC50, monovalent against bivalent format (FGFR1 of NCI-H520 cells): ~10 fold

B5: mAb #A05 (#A05 hit), anti-FGFR1 antibody (antibody, IgG1, V domains shown)
VH: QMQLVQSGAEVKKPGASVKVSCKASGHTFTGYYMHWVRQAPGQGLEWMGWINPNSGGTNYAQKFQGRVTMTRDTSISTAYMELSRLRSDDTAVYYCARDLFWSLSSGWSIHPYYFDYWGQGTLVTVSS
VL: QSALTQPASVSGSPGQSITISCTGTSSDVGSYNLVSWYQQHPGKAPKLMIYGGSKRPSGVPDRFSGSKSDTSASLTISGLQAEDEADYYCCSYTYNGDVFGTGTKVTVL
notes: also called imAb #A05
binding result [5]: binds
binding result (Human FGFR1 D2-His6): no binding
IC50 of inhibition of FGF1-induced pFGFR1 in NCI-H520 cells (FGFR1 of NCI-H520 cells): 1 nM
IC50 of inhibition of FGF2-induced pFGFR1 in NCI-H520 cells (FGFR1 of NCI-H520 cells): 1 nM
Kd [4]: 0.01 nM

B6: mAb #D01 in the IgG1 format (antibody, V domains shown)
VH: B1 VH with L105H
VL: SYVLTQPPSVSVAPGQTARITCGGNNIGSESVHWYQQKPGQAPVLVVYDDSDRPSGIPERFSGSNSGNTATLTISRVEAGDEADYYCQVWDSTSDHRVFGGGTKLTVLG
EC50 [6]: 0.015 nM

B7: #A08 lead IgG1 antibody (bivalent) (antibody, V domains shown)
VH: B1 VH with Q1E, A99G, L105P
VL: B6 VL
notes: also called lgG1 (bivalent) format of #A08; #A08 lead-lgG1 m3 antibody
EC50 [7]: 0.008 nM
